“And” between values parts separate entries of the source, which are not always exact repeats. Equal values may be shown once.
How the values were obtained:
[1] = biological target: human pro-TGF-β1 (C4S, R249A furin-site mutant, N107Q, N147Q), purified (human); assay: negative-stain electron microscopy
[2] = biological target: pro-TGF-β1 prodomain expressed in absence of the growth factor (latency-associated peptide, LAP); assay: SPR

stoichiometry N (αVβ6 headpieces per pro-TGF-β1 dimer) [1]: 2 and 1
Kd [2]: 7.6 nM
Substance: soluble integrin αVβ6 headpiece (from UniProt P06756 31-625; P18564 22-491) (complex)
